± gives the uncertainty stated by the source.
B1: 1-phosphatidylinositol 4,5-bisphosphate phosphodiesterase gamma-2, residues 772 to 827; numbered along this chain, P16885 (parent)
chain: RTVKALYDYKAKRSDELSFCRGALIHNVSKEPGGWWKGDYGTRIQQYFPSNYVEDI

Variants of: B1
Assay: abundance fitness (aPCA) (normalised: wild type 0, dead -1); higher = more abundant; growth selection in yeast, the domain comes from the species named
Settings: Homo sapiens

Variant | abundance fitness
RTVKALYDYKAKRSDEASFCRGALIHNVSKEPGGWWKGDYGTRIQQYFPSNYVEDI [L17A] | -0.922 ± 0.28
RTVKALYDYKAKRSDEESFCRGALIHNVSKEPGGWWKGDYGTRIQQYFPSNYVEDI [L17E] | -0.81 ± 0.42
RTVKALYDYKAKRSDEFSFCRGALIHNVSKEPGGWWKGDYGTRIQQYFPSNYVEDI [L17F] | -0.492 ± 0.25
RTVKALYDYKAKRSDEGSFCRGALIHNVSKEPGGWWKGDYGTRIQQYFPSNYVEDI [L17G] | -1 ± 0.44
RTVKALYDYKAKRSDEISFCRGALIHNVSKEPGGWWKGDYGTRIQQYFPSNYVEDI [L17I] | -0.154 ± 0.35
RTVKALYDYKAKRSDEMSFCRGALIHNVSKEPGGWWKGDYGTRIQQYFPSNYVEDI [L17M] | 0.012 ± 0.093
RTVKALYDYKAKRSDEQSFCRGALIHNVSKEPGGWWKGDYGTRIQQYFPSNYVEDI [L17Q] | -0.903 ± 0.11
RTVKALYDYKAKRSDERSFCRGALIHNVSKEPGGWWKGDYGTRIQQYFPSNYVEDI [L17R] | -0.945 ± 0.28
RTVKALYDYKAKRSDETSFCRGALIHNVSKEPGGWWKGDYGTRIQQYFPSNYVEDI [L17T] | -0.788 ± 0.43
RTVKALYDYKAKRSDEVSFCRGALIHNVSKEPGGWWKGDYGTRIQQYFPSNYVEDI [L17V] | -0.41 ± 0.14
RTVKALYDYKAKRSDEWSFCRGALIHNVSKEPGGWWKGDYGTRIQQYFPSNYVEDI [L17W] | -0.884 ± 0.36
RTVKALYDYKAKRSDELAFCRGALIHNVSKEPGGWWKGDYGTRIQQYFPSNYVEDI [S18A] | -0.862 ± 0.22
RTVKALYDYKAKRSDELCFCRGALIHNVSKEPGGWWKGDYGTRIQQYFPSNYVEDI [S18C] | -0.512 ± 0.5
RTVKALYDYKAKRSDELDFCRGALIHNVSKEPGGWWKGDYGTRIQQYFPSNYVEDI [S18D] | -0.201 ± 0.21
RTVKALYDYKAKRSDELEFCRGALIHNVSKEPGGWWKGDYGTRIQQYFPSNYVEDI [S18E] | 0.018 ± 0.11
RTVKALYDYKAKRSDELFFCRGALIHNVSKEPGGWWKGDYGTRIQQYFPSNYVEDI [S18F] | -0.927 ± 0.094
RTVKALYDYKAKRSDELGFCRGALIHNVSKEPGGWWKGDYGTRIQQYFPSNYVEDI [S18G] | -0.679 ± 0.15
RTVKALYDYKAKRSDELLFCRGALIHNVSKEPGGWWKGDYGTRIQQYFPSNYVEDI [S18L] | -0.987 ± 0.32
RTVKALYDYKAKRSDELNFCRGALIHNVSKEPGGWWKGDYGTRIQQYFPSNYVEDI [S18N] | -0.619 ± 0.15
RTVKALYDYKAKRSDELPFCRGALIHNVSKEPGGWWKGDYGTRIQQYFPSNYVEDI [S18P] | -0.907 ± 0.16
RTVKALYDYKAKRSDELRFCRGALIHNVSKEPGGWWKGDYGTRIQQYFPSNYVEDI [S18R] | -0.936 ± 0.12
RTVKALYDYKAKRSDELTFCRGALIHNVSKEPGGWWKGDYGTRIQQYFPSNYVEDI [S18T] | -0.187 ± 0.25
RTVKALYDYKAKRSDELVFCRGALIHNVSKEPGGWWKGDYGTRIQQYFPSNYVEDI [S18V] | -0.914 ± 0.24
RTVKALYDYKAKRSDELSACRGALIHNVSKEPGGWWKGDYGTRIQQYFPSNYVEDI [F19A] | -0.758 ± 0.14

Variant | abundance fitness
RTVKALYDYKAKRSDELSCCRGALIHNVSKEPGGWWKGDYGTRIQQYFPSNYVEDI [F19C] | -0.64 ± 0.34
RTVKALYDYKAKRSDELSDCRGALIHNVSKEPGGWWKGDYGTRIQQYFPSNYVEDI [F19D] | -0.685 ± 0.13
RTVKALYDYKAKRSDELSECRGALIHNVSKEPGGWWKGDYGTRIQQYFPSNYVEDI [F19E] | -0.711 ± 0.47
RTVKALYDYKAKRSDELSGCRGALIHNVSKEPGGWWKGDYGTRIQQYFPSNYVEDI [F19G] | -0.604 ± 0.23
RTVKALYDYKAKRSDELSKCRGALIHNVSKEPGGWWKGDYGTRIQQYFPSNYVEDI [F19K] | -0.558 ± 0.42
RTVKALYDYKAKRSDELSLCRGALIHNVSKEPGGWWKGDYGTRIQQYFPSNYVEDI [F19L] | -0.779 ± 0.2
RTVKALYDYKAKRSDELSPCRGALIHNVSKEPGGWWKGDYGTRIQQYFPSNYVEDI [F19P] | -0.536 ± 0.21
RTVKALYDYKAKRSDELSQCRGALIHNVSKEPGGWWKGDYGTRIQQYFPSNYVEDI [F19Q] | -0.721 ± 0.34
RTVKALYDYKAKRSDELSRCRGALIHNVSKEPGGWWKGDYGTRIQQYFPSNYVEDI [F19R] | -0.966 ± 0.17
RTVKALYDYKAKRSDELSVCRGALIHNVSKEPGGWWKGDYGTRIQQYFPSNYVEDI [F19V] | -0.886 ± 0.1
RTVKALYDYKAKRSDELSFARGALIHNVSKEPGGWWKGDYGTRIQQYFPSNYVEDI [C20A] | 0.004 ± 0.06
RTVKALYDYKAKRSDELSFDRGALIHNVSKEPGGWWKGDYGTRIQQYFPSNYVEDI [C20D] | -0.095 ± 0.1
RTVKALYDYKAKRSDELSFFRGALIHNVSKEPGGWWKGDYGTRIQQYFPSNYVEDI [C20F] | -0.17 ± 0.11
RTVKALYDYKAKRSDELSFGRGALIHNVSKEPGGWWKGDYGTRIQQYFPSNYVEDI [C20G] | -0.059 ± 0.057
RTVKALYDYKAKRSDELSFHRGALIHNVSKEPGGWWKGDYGTRIQQYFPSNYVEDI [C20H] | 0.151 ± 0.14
RTVKALYDYKAKRSDELSFIRGALIHNVSKEPGGWWKGDYGTRIQQYFPSNYVEDI [C20I] | -0.216 ± 0.15
RTVKALYDYKAKRSDELSFKRGALIHNVSKEPGGWWKGDYGTRIQQYFPSNYVEDI [C20K] | 0.002 ± 0.11
RTVKALYDYKAKRSDELSFLRGALIHNVSKEPGGWWKGDYGTRIQQYFPSNYVEDI [C20L] | -0.116 ± 0.081
RTVKALYDYKAKRSDELSFMRGALIHNVSKEPGGWWKGDYGTRIQQYFPSNYVEDI [C20M] | -0.063 ± 0.073
RTVKALYDYKAKRSDELSFNRGALIHNVSKEPGGWWKGDYGTRIQQYFPSNYVEDI [C20N] | -0.037 ± 0.15
RTVKALYDYKAKRSDELSFPRGALIHNVSKEPGGWWKGDYGTRIQQYFPSNYVEDI [C20P] | 0.209 ± 0.085
RTVKALYDYKAKRSDELSFQRGALIHNVSKEPGGWWKGDYGTRIQQYFPSNYVEDI [C20Q] | -0.143 ± 0.1
RTVKALYDYKAKRSDELSFRRGALIHNVSKEPGGWWKGDYGTRIQQYFPSNYVEDI [C20R] | 0.11 ± 0.055

Source: the Human Domainome abundance scans (Beltran et al. 2025)
